Results published in PMC2807882, “Conservation of DNA-binding specificity and oligomerisation properties within the p53 family”.

Tests used:
Experiment in all cases: fluorescence anisotropy direct titration; 25 mM sodium phosphate (purification buffer pH 7.2), 225 mM NaCl, 10% v/v glycerol, 5 mM DTT, 0.2 mg/mL BSA, 22 C
Details in all cases: protein: recombinant; tags: N-terminal 6xHis-lipoyl-TEV tag, cleaved; chain copies: 4; label: 5'-Alexa488
ΔNp63γ = molecular target: T1, ΔNp63γ (Homo sapiens, UniProt Q9H3D4-6 1-393)
T1 sequence: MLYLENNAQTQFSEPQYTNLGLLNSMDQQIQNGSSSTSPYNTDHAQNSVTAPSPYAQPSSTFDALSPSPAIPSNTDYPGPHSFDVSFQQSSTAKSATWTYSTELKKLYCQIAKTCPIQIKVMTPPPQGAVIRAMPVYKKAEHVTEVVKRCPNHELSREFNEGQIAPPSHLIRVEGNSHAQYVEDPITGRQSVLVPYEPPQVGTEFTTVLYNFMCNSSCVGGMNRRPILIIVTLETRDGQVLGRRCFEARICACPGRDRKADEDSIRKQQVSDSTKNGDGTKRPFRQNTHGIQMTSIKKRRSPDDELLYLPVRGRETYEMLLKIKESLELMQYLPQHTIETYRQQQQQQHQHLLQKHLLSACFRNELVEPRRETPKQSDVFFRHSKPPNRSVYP

Dmp53 = molecular target: T2, Dmp53 (Drosophila melanogaster, UniProt Q9N6D8 1-385)
T2 sequence: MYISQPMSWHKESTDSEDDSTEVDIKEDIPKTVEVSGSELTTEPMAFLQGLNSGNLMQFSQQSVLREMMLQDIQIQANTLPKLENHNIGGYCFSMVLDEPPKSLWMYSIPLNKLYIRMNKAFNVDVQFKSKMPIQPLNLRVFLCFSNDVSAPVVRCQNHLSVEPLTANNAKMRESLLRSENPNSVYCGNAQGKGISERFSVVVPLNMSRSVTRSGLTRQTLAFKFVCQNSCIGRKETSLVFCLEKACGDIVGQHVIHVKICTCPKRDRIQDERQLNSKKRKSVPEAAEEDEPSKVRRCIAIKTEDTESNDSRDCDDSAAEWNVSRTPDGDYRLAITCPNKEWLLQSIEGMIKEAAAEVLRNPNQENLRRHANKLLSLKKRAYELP

Hsp53 = Hsp53 (Homo sapiens, UniProt P04637 1-393)
Mmp53 = Mmp53 (Mus musculus, UniProt P02340 1-390)
ΔNp63α = molecular target: T3, ΔNp63α (Homo sapiens, UniProt Q9H3D4-2 1-586)
T3 sequence: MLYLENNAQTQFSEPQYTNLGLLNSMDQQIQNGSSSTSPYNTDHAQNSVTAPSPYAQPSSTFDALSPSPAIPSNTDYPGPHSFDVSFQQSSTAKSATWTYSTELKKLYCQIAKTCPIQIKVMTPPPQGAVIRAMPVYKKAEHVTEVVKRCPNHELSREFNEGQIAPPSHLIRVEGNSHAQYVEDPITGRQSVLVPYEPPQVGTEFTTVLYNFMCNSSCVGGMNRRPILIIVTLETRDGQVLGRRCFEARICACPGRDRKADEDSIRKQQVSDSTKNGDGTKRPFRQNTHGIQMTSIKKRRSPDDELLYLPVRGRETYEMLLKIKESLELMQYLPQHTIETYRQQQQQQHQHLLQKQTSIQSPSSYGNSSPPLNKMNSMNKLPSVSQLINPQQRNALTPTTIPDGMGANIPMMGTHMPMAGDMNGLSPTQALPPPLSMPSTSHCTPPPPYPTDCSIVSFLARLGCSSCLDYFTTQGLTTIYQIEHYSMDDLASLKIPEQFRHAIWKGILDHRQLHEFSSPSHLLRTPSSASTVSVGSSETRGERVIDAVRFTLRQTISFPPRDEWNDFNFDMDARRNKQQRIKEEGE

ΔNp73β = molecular target: T4, ΔNp73β (Homo sapiens, UniProt O15350-9 1-450)
T4 sequence: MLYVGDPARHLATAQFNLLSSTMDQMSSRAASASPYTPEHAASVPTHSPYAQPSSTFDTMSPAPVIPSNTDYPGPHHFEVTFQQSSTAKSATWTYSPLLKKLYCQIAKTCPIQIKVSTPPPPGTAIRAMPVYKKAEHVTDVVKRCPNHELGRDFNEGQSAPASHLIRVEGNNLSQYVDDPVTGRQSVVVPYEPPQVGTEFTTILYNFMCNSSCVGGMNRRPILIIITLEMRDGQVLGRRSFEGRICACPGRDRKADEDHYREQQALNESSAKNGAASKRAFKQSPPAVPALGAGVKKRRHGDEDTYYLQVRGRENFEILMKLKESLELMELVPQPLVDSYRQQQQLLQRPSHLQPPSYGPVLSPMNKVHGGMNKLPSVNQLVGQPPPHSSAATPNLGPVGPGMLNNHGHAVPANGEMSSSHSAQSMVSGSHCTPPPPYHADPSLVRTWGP

p73CT = molecular target: T5, p73CT (Homo sapiens, UniProt O15350 104-383)
T5 sequence: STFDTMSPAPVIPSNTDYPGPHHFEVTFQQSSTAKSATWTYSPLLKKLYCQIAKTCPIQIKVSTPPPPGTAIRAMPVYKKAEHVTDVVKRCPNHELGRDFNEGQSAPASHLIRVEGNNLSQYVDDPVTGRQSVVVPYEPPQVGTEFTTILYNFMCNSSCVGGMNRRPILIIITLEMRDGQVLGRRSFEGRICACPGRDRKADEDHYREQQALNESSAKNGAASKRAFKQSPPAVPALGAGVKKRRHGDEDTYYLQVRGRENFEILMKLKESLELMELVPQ

Sequence of Mmp53 (P02340 whole entry): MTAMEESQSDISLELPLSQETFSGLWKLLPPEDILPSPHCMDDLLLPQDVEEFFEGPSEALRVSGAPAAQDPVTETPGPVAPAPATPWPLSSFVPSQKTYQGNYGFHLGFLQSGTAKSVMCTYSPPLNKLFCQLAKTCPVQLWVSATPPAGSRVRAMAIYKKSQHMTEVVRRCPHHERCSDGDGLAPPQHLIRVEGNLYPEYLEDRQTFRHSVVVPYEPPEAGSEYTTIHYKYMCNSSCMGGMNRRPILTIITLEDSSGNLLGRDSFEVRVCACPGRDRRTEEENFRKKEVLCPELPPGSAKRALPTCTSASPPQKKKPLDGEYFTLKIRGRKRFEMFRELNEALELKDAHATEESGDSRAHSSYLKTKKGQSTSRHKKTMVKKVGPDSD
Sequence of Hsp53 (P04637 whole entry): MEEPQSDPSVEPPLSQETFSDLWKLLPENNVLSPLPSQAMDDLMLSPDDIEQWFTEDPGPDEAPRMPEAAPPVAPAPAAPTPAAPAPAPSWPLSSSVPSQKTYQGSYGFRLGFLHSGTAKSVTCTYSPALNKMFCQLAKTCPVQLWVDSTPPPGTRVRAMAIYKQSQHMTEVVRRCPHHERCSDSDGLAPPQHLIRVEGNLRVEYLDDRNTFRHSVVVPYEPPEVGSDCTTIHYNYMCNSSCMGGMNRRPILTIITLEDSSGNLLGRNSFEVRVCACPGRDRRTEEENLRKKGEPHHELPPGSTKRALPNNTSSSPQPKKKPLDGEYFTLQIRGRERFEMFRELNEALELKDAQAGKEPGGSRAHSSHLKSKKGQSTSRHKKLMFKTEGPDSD

B1: Ref_Alexa488 (dsDNA)
DNA 1: GGACATGTCCGGACATGTCC
DNA 2: GGACATGTCCGGACATGTCC
ΔNp63γ
  Kd: 67.6 nM
Dmp53
  Kd: 52.5 nM
Hsp53
  Kd: 56.2 nM
Mmp53
  Kd: 95.5 nM
ΔNp63α
  Kd: 75.9 nM
ΔNp73β
  Kd: 55 nM
p73CT
  Kd: 240 nM
